Experimental data taken from patent US20130336885A1 (Genentech, published 2013).
Values belong to the binder of their own block, whether it stands above or below them.

What was measured:
[1] = molecular target: T1, gD epitope-tagged LgR5 22-123 (amino acids 22-123 of SEQ ID NO: 67) with a C-terminal GPI anchor on … (human, UniProt O75473 22-123, C-terminal GPI anchor); experiment: FACS on transiently transfected 293 cells
T1 sequence: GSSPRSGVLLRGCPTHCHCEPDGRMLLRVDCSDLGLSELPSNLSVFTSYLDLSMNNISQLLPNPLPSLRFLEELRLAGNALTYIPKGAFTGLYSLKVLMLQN

[2] = molecular target: T2, gD epitope-tagged mouse LgR5 expressed on stably transfected 293 cells (mouse, UniProt Q9Z1P4 22-907); experiment: Scatchard analysis, 125I-labelled antibody competed by unlabelled antibody on stably transfected 293 cells
T2 construct: also called gD-tagged mouse LgR5
T2 sequence: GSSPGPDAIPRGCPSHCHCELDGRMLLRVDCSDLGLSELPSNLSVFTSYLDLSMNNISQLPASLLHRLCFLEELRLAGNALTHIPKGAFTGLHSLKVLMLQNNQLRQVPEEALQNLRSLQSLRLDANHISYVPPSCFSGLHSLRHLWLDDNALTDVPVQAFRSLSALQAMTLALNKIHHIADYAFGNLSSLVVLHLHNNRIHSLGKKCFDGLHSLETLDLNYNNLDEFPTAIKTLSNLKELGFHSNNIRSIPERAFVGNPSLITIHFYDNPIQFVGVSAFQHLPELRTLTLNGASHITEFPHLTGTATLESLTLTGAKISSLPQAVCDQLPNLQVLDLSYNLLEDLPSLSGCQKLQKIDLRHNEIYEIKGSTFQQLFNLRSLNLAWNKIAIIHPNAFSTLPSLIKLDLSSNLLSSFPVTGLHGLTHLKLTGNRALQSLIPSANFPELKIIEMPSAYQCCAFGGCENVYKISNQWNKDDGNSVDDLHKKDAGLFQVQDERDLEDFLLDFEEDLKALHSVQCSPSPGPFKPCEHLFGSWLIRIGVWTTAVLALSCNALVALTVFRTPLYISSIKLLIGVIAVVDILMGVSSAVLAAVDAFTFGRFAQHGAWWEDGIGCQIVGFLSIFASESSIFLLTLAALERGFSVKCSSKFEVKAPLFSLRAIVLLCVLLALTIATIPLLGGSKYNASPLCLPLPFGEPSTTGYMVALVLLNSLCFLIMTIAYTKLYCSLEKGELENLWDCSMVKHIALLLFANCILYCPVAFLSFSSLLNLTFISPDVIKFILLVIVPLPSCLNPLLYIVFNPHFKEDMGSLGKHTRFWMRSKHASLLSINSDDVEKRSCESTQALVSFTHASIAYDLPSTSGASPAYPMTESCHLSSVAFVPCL
Experimental: (§1) Scatchard analysis was performed following standard procedures (Holmes et al., Science 256:1205-1210 (1992)) to determine the relative binding affinities of YW353, ch8E11 and hu8E11v2 antibodies.
(§2) Anti-LgrS antibodies were [I¹²⁵] labeled using the indirect Iodogen method. […] Competition assay mixtures of 50 μL volume containing a fixed concentration of [I¹²⁵] labeled antibody and decreasing concentrations of serially diluted, unlabeled antibody were placed into 96-well plates. 293 cells stably expression human, rat, or mouse LgrS were cultured in growth media at 37° C. in 5% CO₂. Cells were detached from the flask using Sigma Cell Dissociation Solution and were washed with binding buffer, which consisted of Dulbecco's Modified Eagle Medium (DMEM) with 2% fetal bovine serum (FBS), 50 mM HEPES (pH 7.2) and 0.1% sodium azide. The washed cells were added to the 96 well plates at a density of 250,000 cells in 0.2 mL of binding buffer. The final concentration of the labeled antibody in each well was […]. The final concentration of the unlabeled antibody in the competition assay ranged from 500 nM through ten 2-fold diluation steps to a 0 nM buffer-only assay. Competition assays were carried out in triplicate. Competition assays were incubated for 2 hours at room temperature. After the 2-hour incubation, the competition assays were transferred to a Millipore Multiscreen filter plate (Billerica, Mass.) and washed 4 times with binding buffer to separate the free from bound [I¹²⁵] labeled antibody. The filters were counted on a Wallac Wizard 1470 gamma counter (PerkinElmer Life and Analytical Sciences Inc.; Wellesley, Mass.). The binding data was evaluated using NewLigand software (Genentech), which uses the fitting algorithm of Munson and Robard to determine the binding affinity of the antibody (Munson and Robard 1980)

[3] = molecular target: T3, gD epitope-tagged human LgR5 (full-length) expressed on transfected 293 cells (human, UniProt O75473 22-907); experiment: as above
T3 construct: also called gD-tagged human LgR5
T3 sequence: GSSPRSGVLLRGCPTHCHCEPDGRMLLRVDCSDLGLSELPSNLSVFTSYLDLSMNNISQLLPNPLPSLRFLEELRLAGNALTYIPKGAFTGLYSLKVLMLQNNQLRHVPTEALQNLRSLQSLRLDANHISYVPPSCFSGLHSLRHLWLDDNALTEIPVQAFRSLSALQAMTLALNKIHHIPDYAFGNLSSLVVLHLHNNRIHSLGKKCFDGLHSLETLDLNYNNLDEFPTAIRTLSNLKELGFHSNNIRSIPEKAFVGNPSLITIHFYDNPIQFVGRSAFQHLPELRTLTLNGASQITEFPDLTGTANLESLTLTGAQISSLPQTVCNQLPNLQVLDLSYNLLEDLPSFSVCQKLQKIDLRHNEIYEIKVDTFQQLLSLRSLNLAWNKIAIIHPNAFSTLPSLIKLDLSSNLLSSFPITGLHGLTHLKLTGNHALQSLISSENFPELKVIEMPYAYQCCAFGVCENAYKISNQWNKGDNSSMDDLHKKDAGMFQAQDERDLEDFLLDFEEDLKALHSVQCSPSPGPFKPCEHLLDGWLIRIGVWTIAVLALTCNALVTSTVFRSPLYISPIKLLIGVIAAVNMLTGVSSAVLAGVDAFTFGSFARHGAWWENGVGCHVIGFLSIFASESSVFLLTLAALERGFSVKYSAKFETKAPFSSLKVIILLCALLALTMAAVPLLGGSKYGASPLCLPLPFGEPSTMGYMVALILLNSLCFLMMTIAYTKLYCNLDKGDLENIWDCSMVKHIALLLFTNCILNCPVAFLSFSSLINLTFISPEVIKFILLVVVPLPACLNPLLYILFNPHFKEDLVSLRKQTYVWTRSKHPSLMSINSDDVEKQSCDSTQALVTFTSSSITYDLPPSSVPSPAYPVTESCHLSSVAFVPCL
Experimental: as §1, §2

binding result [1]: no binding (tested: 10 µg/ml)
Kd [2]: 0.5 nM
B1: humanized monoclonal antibody 8E11.v2 (antibody, human IgG1, kappa, V domains shown)
VH: EVQLVQSGAEVKKPGASVKVSCKASGYTFSAYWIEWVRQAPGQGLEWIGEILPGSDSTDYNEKFKVRATFTSDTSTSTVYLELSSLRSEDTAVYYCARGGHYGSLDYWGQGTLVTVSS
VL: DIVMTQSPDSLAVSLGERATINCRASESVDNYGNSFMHWYQQKPGQPPKLLIYLASNLESGVPDRFSGSGSGTDFTLTISSLQAEDVAVYYCQQNYEDPFTFGQGTKVEIKR
notes: It was assessed as an IgG; also called hu8E11.v2; hu8E11v2

binding result [1]: no binding (tested: 10 µg/ml)
Kd [3]: 0.4 nM
Kd [2]: 0.2 nM
B2: chimeric monoclonal antibody 8E11 (antibody, human IgG1, V domains shown)
VH: QVQLQQSGTELMKPGASVKISCKATGYTFSAYWIEWIKQRPGHGLEWIGEILPGSDSTDYNEKFKVKATFSSDTSSNTVYIQLNSLTYEDSAVYYCARGGHYGSLDYWGQGTTLKVSS
VL: NIVLTQSPASLAVSLGQRATISCRASESVDNYGNSFMHWYQQKPGQPPKLLIYLASNLESGVPARFSGSGSRTDFTLTIDPVEADDAATYYCQQNYEDPFTFGSGTKVEIKR
notes: also called ch8E11; chimeric 8E11

Kd [3]: 0.2 nM
B3: human antibody YW353 (antibody, human IgG1, kappa, V domains shown)
VH: EVQLVESGGGLVQPGGSLRLSCAASGFTFTSYSISWVRQAPGKGLEWVAEIYPPGGYTDYADSVKGRFTISADTSKNTAYLQMNSLRAEDTAVYYCAKARLFFDYWGQGTLVTVSS
VL: DIQMTQSPSSLSASVGDRVTITCRASQDVSTAVAWYQQKPGKAPKLLIYSASFLYSGVPSRFSGSGSGTDFTLTISSLQPEDFATYYCQQSYTTPPTFGQGTKVEIKR
notes: also called huYW353
